The test system of one experiment is wild-type 92BR SOSIP.664. Nature of the experiment: Biolayer interferometry (Octet QKe), Fab binding to wild-type 92BR SOSIP.664 Env trimer. Further details: species or system HIV-1. Conditions: for change in Env interaction/affinity of DH270.6 mutant relative to DH270.6: 92BR SOSIP.664 Env trimer; for change in Env interaction/affinity of DH270.6 mutant relative to DH270.6 / Kd: Table 2; for Kd: Fab 0.2 mg/ml immobilized on anti-Human Fab-CH1 biosensor, trimer 0.1 μM to 0.6 μM, association and dissociation 5 min each, 1000 rpm, duplicate measurements, error SEM, read-out: KD of Fab complexes with wild-type 92BR SOSIP.664. Here is the method: (§1) The SOSIP.664 constructs were cloned into the same pVRC-8400 vector described above for Fabs and any mutations were added by site-directed mutagenesis using manufacturer’s protocols (Stratagene). SOSIP.664 constructs were transfected along with a plasmid encoding the cellular protease furin at a 3:1 Env:furin ratio in 293F cells, adapted to grow in suspension from HEK293T cells (ATCC: CRL-3216). The expression construct of furin was kindly provided by Bing Chen (Boston Children’s Hospital, Boston, MA). The cells were allowed to express soluble SOSIP trimers for 5–7 days, and gp120 monomers were expressed for 5 days. Culture supernatants were collected and cells were removed by centrifugation at 3800 × g for 20 min, and filtered with a 0.2 µm pore size filter. Envs were purified by flowing the supernatant over a lectin (Galanthus nivalis) affinity chromatography column overnight at 4 °C. The lectin column was washed with 1× PBS, followed by a second wash with 1× PBS and 0.5 M NaCl and proteins were eluted with 1× PBS supplemented with 0.5 M methyl-α-D-mannopyranoside and 0.5 M NaCl. The eluate was concentrated and loaded onto a Superdex 200 10/300 GL column (GE Life Sciences) pre-equilibrated in a buffer of 2.5 mM Tris, pH 7.5, 350 mM NaCl and 0.02% sodium azide for BLI and in 10 mM Hepes, pH 8.0, 150 mM NaCl and 0.02% sodium azide for negative stain EM, to separate the trimer-size oligomers from aggregates and gp140 monomers and to separate gp120 monomers from aggregates.
Kinetic measurements of Fab binding to the SOSIP.664 constructs were carried out using the Octet QK^e system (ForteBio); 0.2 mg/ml of each His-tagged Fab was immobilized onto a anti-Human Fab-CH1 biosensor until it reached saturation. The SOSIP.664 trimers were tested at concentrations of 0.1 μM to 0.6 μM. A reference sample of buffer alone was used to account for any signal drift that was observed during the experiment. Association and dissociation were each monitored for 5 min. All experiments were conducted in the Octet instrument with agitation at 1000 rpm.
Analyses were performed using nonlinear regression curve fitting using the Graphpad Prism software, version 7.
On the technique in general: Biolayer interferometry detects binding as a change in optical thickness at a sensor tip.

For experiment [1], the target named is biotinylated Man9-V3 glycopeptide (HIV-1 (strain JRFL)). Nature of the experiment: BLI; BLItz instrument; 0.2 mg/ml biotinylated Man9-V3 immobilised on a streptavidin biosensor; DH270.6 Fab at 40, 15, 5, 1.5 and 0.25 μM; 22 °C; duplicate measurements; kd calculated as the product of ka and KD.
Experiment [2] has as its target DH270.6 Fab (human). Nature of the experiment: BLI.
For experiment [3], the target named is DH270.6 Fab (human). The experiment in a line: BLI; Octet QKe; 0.2 mg/ml His-tagged Fab immobilised on an anti-Human Fab-CH1 biosensor; SOSIP.664 trimers at 0.1 to 0.6 μM; association and dissociation 5 min each; agitation 1000 rpm.
Experiment [4] concerns the target DH270.6 Fab T98R (heavy chain) (human). The experiment in a line: BLI.
For experiment [5], the target named is DH270.6 Fab Y48L (light chain) (human). Nature of the experiment: BLI.
Experiment [6] deals with DH270.6 Fab S103G (heavy chain) (human). Nature of the experiment: BLI.
In experiment [7] the target is DH270.6 Fab (human). The experiment in a line: BLI; Octet QKe; 0.2 mg/ml His-tagged Fab immobilised on an anti-Human Fab-CH1 biosensor; SOSIP.664 trimers at 0.1 to 0.6 μM; association and dissociation 5 min each; agitation 1000 rpm. This is another data set of the same source.
In another experiment the test system is 92BR SOSIP.664 trimer. Nature of the experiment: Negative stain EM of DH270.6 Fab-92BR SOSIP.664 complex. Further details: species or system HIV-1. Conditions: negatively stained EM; 6 molar excess of Fab, 4 °C, 1.5 h. Here is the method: A 2.5 µl aliquot containing ∼0.01 mg/ml of the Fab-92BR SOSIP.664 complex was applied for 30 s onto a carbon-coated 400 Cu mesh grid that had been glow discharged at 5 mA for 2 min, followed by negative staining with 0.7% uranyl formate for 20 s. Samples were imaged using a FEI Tecnai T12 microscope operated at 120 kV and a magnification of ×52,000, yielding a pixel size of 2.13 Å at the specimen plane. Images were acquired with a Gatan 2 K CCD camera using a nominal defocus of 1500 nm at 10° tilt increments, up to 50°. The tilts provided additional particle orientations to improve the image reconstructions.
Particles were picked semi-automatically using EMAN2 and put into a particle stack. Initial, reference-free, two-dimensional (2D) class averages were calculated, and particles corresponding to complexes (with three Fabs bound) were selected into a substack for determination of an initial model. The initial model was calculated in EMAN2 using threefold symmetry and EMAN2 was used for subsequent refinement using threefold symmetry. In total, 12,941 particles were included in the final reconstruction for the 3D average of 92BR SOSIP.664 trimer complex with DH270.6. The resolution of the final model was estimated using a Fourier Shell Correlation (FSC) cut-off of 0.5. […]

In experiment [8] the test system is R327A mutant of 92BR SOSIP.664 Env. The experiment in a line: Biolayer interferometry (Octet QKe), DH270.6 Fab binding to R327A mutant 92BR SOSIP.664 Env trimer. Further details: species or system HIV-1. Here is the method: as §1, with “The eluate was concentrated and loaded onto a Superdex 200 10/300 GL column (GE Life Sciences) pre-equilibrated in a buffer of 2.5 mM Tris, pH 7.5, 350 mM NaCl and 0.02% sodium azide for BLI and in 10 mM Hepes, pH 8.0, 150 mM NaCl and 0.02% sodium azide for negative stain EM, to separate the trimer-size oligomers from aggregates and gp140 monomers and to separate gp120 monomers from aggregates.” left out
Kinetic measurements of Fab binding to the SOSIP.664 constructs were carried out using the Octet QK^e system (ForteBio); 0.2 mg/ml of each His-tagged Fab was immobilized onto a anti-Human Fab-CH1 biosensor until it reached saturation. […] Association and dissociation were each monitored for 5 min. […]

The test system of experiment [9] is HIV-1 (autologous and heterologous viruses). The settings on record: cited from earlier work. From the text:
A synthetic V3-loop glycopeptide (“Man9-V3”), described recently, presents the conformational epitopes needed for the binding of N332 glycan-dependent bnAbs[24], [25]. The peptide design derives from the JRFL mini-V3 gp120 outer domain, used previously for determining a crystal structure with the Fab of bnAb PGT128[9]. The synthetic V3 glycopeptide, which has Man9 glycans (Man9GlcNAc2) at N332 and N301[24] and a 14-residue tip deleted, was used to identify the V3-glycan bnAb DH270.6 (12.9% mutated nucleotides and 71% neutralization breadth[12]) by labeling the B-cell receptor (BCR) on cells fr ... || We describe here a high-resolution crystal structure of “Man9-V3” bound with the single chain variable fragment (scFv) of the N332-glycan dependent bnAb, DH270.6. We have also determined a structure of the Fab of a clonally related member of this lineage, DH270.3 (11.8% mutated nucleotides and 42% neutralization breadth), in complex with a synthetic Man9 glycan. These clonally related antibodies have similar numbers of mutation, but their neutralization breadth and potency differ substantially. Through structural analysis of these two related antibodies, we can account for differences in b ... || Somatic hypermutation is biased by the preference of the activation-induced cytidine deaminase (AID) for certain microsequence motifs (“hot spots”)[28], [29]. […]

The values that follow come from paper PMC5856820, “HIV envelope V3 region mimic embodies key features of a broadly neutralizing antibody lineage epitope” (Nature Communications, 2018).

For “DH270.6 T98RH: DH270.6 Fab with heavy-chain T98 reverted to Arg”, in the experiment with wild-type 92BR SOSIP.664 (reversion mutant of DH270.6, Fig. 4b), the “binding with 92BR SOSIP.664 Env trimer” value is “only negligible residual binding”.
As for DH270.6 Fab, the dissociation constant Kd in experiment [1] was 7000 nM.
Consider “DH270.6 S103GH: DH270.6 Fab with heavy-chain S103G mutation”, for which the “change in Env interaction/affinity of DH270.6 mutant relative to DH270.6” value with wild-type 92BR SOSIP.664 (Fig. 4b) is recorded as “weakens the Env interaction twofold”. For the same molecule, on wild-type 92BR SOSIP.664, the dissociation constant Kd was found to be 19 ± 1 nM.
“92BR SOSIP.664 Env trimer, R327A mutant (complex)”: the Kd with DH270.6 Fab (human) [2] is 7.64 nM.
As for “92BR SOSIP.664 Env trimer, wild type (complex)”, the equilibrium dissociation constant (Kd) in the experiment with DH270.6 Fab (human) [3] stood at 2.76 nM; in experiment [4], 46 nM; in experiment [5], 44 nM; in [6] it was 19 nM; with DH270.6 Fab (human) [7], 11 nM.
Turning to “DH270.6: V3-glycan broadly neutralizing antibody of DH270 lineage from HIV-1 infected donor CH848”, in the experiment with 92BR SOSIP.664 trimer, the “DH270.6 Fabs bound per trimer” value is listed as “three”. Moreover, in experiment [8] (Fig. 4a, compared with wild-type counterpart), the “affinity of Env R327A mutant for DH270.6 relative to wild-type” value was “only a slightly lower affinity”. Further, the Kd in experiment [8] (read-out: KD, R327A mutant 92BR SOSIP.664 Env tested with DH270.6 Fab, Fig. 4a legend, Fab immobilized on anti-Human Fab-CH1 biosensor, trimer 0.1 μM to 0.6 μM) was found to be 7.64 nM; at wild-type 92BR SOSIP.664, 11 ± 1 nM. The neutralization breadth in experiment [9] was 71%.

B1: DH270.6 Y48LL: DH270.6 Fab with light-chain Y48 mutated to leucine, as in the UCA (antibody, V domains shown)
VH: QVQLVQSGAQMKNPGASVKVSCAPSGYTFTDFYIHWLRQAPGQGLQWMGWMNPQTGRTNTARNFQGRVTMTRDTSIGTAYMELRSLTSDDTAIYYCTTGGWISLYYDSSYYPNFDHWGQGTLLTVSS
VL: QSALTQPASVSGSPGQSITISCTGTKYDVGSHDLVSWYQQYPGKVPKLMIYEVNKRPSGVSNRFSGSKSGNTASLTISGLRAEDEADYYCCSFGGSATVVCGGGTKVTVL
With B1, the “change in Env interaction/affinity of DH270.6 mutant relative to DH270.6” value in the experiment on wild-type 92BR SOSIP.664 (Fig. 4b) is “fourfold lower affinity”. Further, the Kd on wild-type 92BR SOSIP.664 came out at 44 ± 2 nM.

What is called Kd is the equilibrium constant for the complex coming apart.
